Key:
[1] = molecular target: human TSHR, wild type, expressed on CHO cells (human) (UniProt P16473); test: cell-based or functional assay
[2] = molecular target: human TSHR (wild type) expressed in CHO cells (human) (UniProt P16473); test: cell-based or functional assay
[3] = molecular target: human TSHR, wild type, expressed on CHO cells (human) (UniProt P16473); test: cell-based or functional assay; remark: listed apart in the source
[4] = molecular target: T1, TSHR coated onto tubes (human, UniProt P16473 21-764, limits assumed); test: TSHR coated tubes, competitor 125I-M22 IgG
T1 construct: whole entry named; also called TSHR coated tubes; thyrotropin receptor

[5] = molecular target: T1, TSHR coated onto tubes; test: TSHR coated tubes, competitor 125I-5C9 IgG
[6] = molecular target: T1, TSHR coated onto tubes; test: TSHR coated tubes, competitor 125I-TSH
[7] = molecular target: human TSHR (wild type) expressed in CHO cells (human) (UniProt P16473); test: cell-based or functional assay; remark: listed apart in the source

| % inhib of 125I-M22 IgG binding at 0.01 µg/mL [4] [%] | % inhib of 125I-M22 IgG binding at 0.1 µg/mL [4] [%] | % inhib of 125I-M22 IgG binding at 1 µg/mL [4] [%] | % inhib of 125I-M22 IgG binding at 10 µg/mL [4] [%] | % inhib of 125I-M22 IgG binding at 100 µg/mL [4] [%] | % inhib of 125I-5C9 IgG binding at 0.01 µg/mL [5] [%] | % inhib of 125I-5C9 IgG binding at 0.1 µg/mL [5] [%] | % inhib of 125I-5C9 IgG binding at 1 µg/mL [5] [%] | % inhib of 125I-5C9 IgG binding at 10 µg/mL [5] [%] | % inhib of 125I-5C9 IgG binding at 100 µg/mL [5] [%] | % inhib of 125I-TSH binding at 0.01 µg/mL [6] [%] | % inhib of 125I-TSH binding at 0.1 µg/mL [6] [%] | % inhib of 125I-TSH binding at 1 µg/mL [6] [%] | % inhib of 125I-TSH binding at 10 µg/mL [6] [%] | % inhib of 125I-TSH binding at 100 µg/mL [6] [%] | Molecule | further results |
| --- | --- | --- | --- | --- | --- | --- | --- | --- | --- | --- | --- | --- | --- | --- | --- | --- |
|  |  |  |  |  |  |  |  |  |  |  |  |  |  |  | native human TSH (NIBSC reference preparation 81/565) (from UniProt P01215 25-116; P01222 21-132) (ligand) | cyclic AMP; Exp 1; native human TSH 100 ng/mL only [1]: 36.1 pmol/mL; cyclic AMP; Exp 2; native human TSH 100 ng/mL only [1]: 40.8 pmol/mL; cyclic AMP; Exp 3; native human TSH 100 ng/mL only [1]: 31.1 pmol/mL |
|  |  |  |  |  |  |  |  |  |  |  |  |  |  |  | 5C9 F(ab′)2 | cyclic AMP; Example 1; 5C9 F(ab′)2 10 µg/mL + TSH (fmol/cell well) [2]: 916; cyclic AMP; Example 1; 5C9 F(ab′)2 100 µg/mL + TSH (fmol/cell well) [2]: 877; cyclic AMP; Example 1; 5C9 F(ab′)2 100 µg/mL only (fmol/cell well) [2]: 204; cyclic AMP; Example 2; 5C9 F(ab′)2 10 µg/mL + TSH (fmol/cell well) [2]: 1330; cyclic AMP; Example 2; 5C9 F(ab′)2 100 µg/mL + TSH (fmol/cell well) [2]: 1060; cyclic AMP; Example 2; 5C9 F(ab′)2 100 µg/mL only (fmol/cell well) [2]: 414 |
|  |  |  |  |  |  |  |  |  |  |  |  |  |  |  | recombinant human TSH (NIBSC reference preparation 94/674) (from UniProt P01215 25-116; P01222 21-138) (ligand) | cyclic AMP; Exp 1; recombinant human TSH 100 ng/mL only [1]: 12.7 pmol/mL; cyclic AMP; Exp 2; recombinant human TSH 100 ng/mL only [1]: 16.7 pmol/mL; cyclic AMP; Exp 3; recombinant human TSH 100 ng/mL only [1]: 26.4 pmol/mL |
|  |  |  |  |  |  |  |  |  |  |  |  |  |  |  | M22 Fab | cyclic AMP production; M22 Fab 3 ng/mL only (fmol/cell well) [2]: 9430; cyclic AMP; Exp 1; M22 3 ng/mL [3]: 49.1 pmol/mL; cyclic AMP; Exp 2; M22 3 ng/mL [3]: 68.3 pmol/mL; cyclic AMP; Exp 3; M22 0.3 ng/mL [3]: 21.8 pmol/mL; cyclic AMP; Exp 4; M22 0.3 ng/mL [3]: 31.1 pmol/mL |
| 3 | 15 | 37 | 60 | 62 | 1 | 10 | 35 | 50.5 | 63 | 4 | 12.5 | 37 | 52 | 57 | 14D3 IgG (antibody, V domains shown) VH: DVQMQQPGPELVKPGASLKMSCKASGYSFTGYNMHWVKQSHGKSLEWIGYIDPYSGATSYNQKFEGKATLTVDKSSSTAYMQLNSLTSEDSAVYYCARRWDWDPYAMDYWGQGTSVTVSS VL: NILMTQSPAILSVSPGERVSFACRASQSIGTSIHWYQQRTNGSPRLLIKYASESISGIPSRFSGSGSGTDFTLSINSVESEDIADYYCQQTNRWPLTFGAGTKLELKR |  |
| 1 | 13 | 24 | 39 | 49 | 3 | 11 | 26 | 43 | 55 | 3 | 7 | 24 | 43 | 56 | 17D2 IgG (antibody, V domains shown) VH: DVQIQQSGPELVKPGASVKMSCKASGYSFTAYNMHWVKQTHGKSLEWIGYIDPYSGATSYHQKFKGKATLTVDKSSSTAYMRLNSLTSEDSAVYYCARRWDWDPYAMDYWGQGTSVTVSS VL: SVEMSQSPAILSVSPGERISFSCRASQSIGTSIHWYQQRTNGSPRLLIKYASASISGIPSRFSGSGSGTDFTLSINSVESEDIADYYCQQSNSWPLTFGAGTKLELKR |  |
| 12 | 22 | 40 | 51 | 53 | 20 | 34 | 47 | 53 | 59 | 9 | 26 | 39 | 44 | 48 | 16E5 IgG (antibody, V domains shown) VH: DVQLVQSGPELVKPGASVKMSCKASGYSFTGYNMHWVKQSHGKSLEWIGYIDPYNGATSYNQKFEDKATLTVDKSSSTAYMQLNSLTSEDSAVYYCARRWDWDPYAMDYWGQGTSVTVSS VL: DILLTQSPAILSVSPGERVSFSCRASQSIGTSIHWYQQRTNGSPRLLIKYASESISGIFSRFSGSGSGTDFTLTINSVESEDIADYYCQQSNRWPLTFGAGTKLELKR |  |
| 1 | 12 | 9 | 19 | 30 | 8 | 23 | 42 | 48 | 72 | 13.5 | 56 | 82 | 85 | 88.5 | 2B4 IgG (antibody, V domains shown) VH: DVQLQQSGTVLARPGASVRMSCKASGYSFTRYWIHWLKQRPGQGLEWIGAIFPGNRDTSYNQRFKGKAEVTAVTSASTAYLDLSSLTNEDSAVYYCTRWPYYGSIYVNFDYWGQGTTLTVSS VL: DIVMTQSPLSLPVSLGDQASISCRTSQNLVHRNGNTYLHWYLQKPGQSPKLLIYKISNRFSGVPDRFSGSGSGTDFTLKISRVEAEDLGVYFCSQGTHVPPTFGGGTKLEIKR |  |
|  |  |  |  |  |  |  |  |  |  |  |  |  |  |  | 5C9 Fab (Fab, from another filing, V domains shown) VH: EVQLVESGGGLIQPGGSLRLSCAASGFTVSSNYMSWVRQAPGKGLEWVSVTYSGGSTSYADSVKGRFTISRDNSKNTLYLQMNSLRAEDTAVYYCARGGRYCSSISCYARSGCDYWGQGTLVTVSS VL: AIQMTQSPSSLSASVGDRVTITCRASQSISNYLNWYQQKPGKAPKLLIYAASSLQSGVPSRFSGSGSGTDFTLTISSLQPEDFATYYCQQSYSSPSTTFGQGTKLEIK | % inhibition of basal cyclic AMP production; Exp 3; 5C9 F(ab′) 0.001 µg/mL [1]: 3%; % inhibition of basal cyclic AMP production; Exp 3; 5C9 F(ab′) 0.1 µg/mL [1]: 19%; % inhibition of basal cyclic AMP production; Exp 3; 5C9 F(ab′) 1 µg/mL [1]: 23%; % inhibition of basal cyclic AMP production; Exp 3; 5C9 F(ab′) 10 µg/mL [1]: 39%; % inhibition of basal cyclic AMP production; Exp 3; 5C9 F(ab′) 100 µg/mL [1]: 48%; % inhibition of basal cyclic AMP production; Exp 3; 5C9 Fab 0.1 µg/mL [1]: 11%; % inhibition of basal cyclic AMP production; Exp 3; 5C9 Fab 1 µg/mL [1]: 39%; % inhibition of basal cyclic AMP production; Exp 3; 5C9 Fab 10 µg/mL [1]: 46%; % inhibition of basal cyclic AMP production; Exp 3; 5C9 Fab 100 µg/mL [1]: 61%; cyclic AMP; Example 1; 5C9 Fab 10 µg/mL + TSH (fmol/cell well) [7]: 1280; cyclic AMP; Example 1; 5C9 Fab 100 µg/mL + TSH (fmol/cell well) [7]: 938; cyclic AMP; Example 1; 5C9 Fab 100 µg/mL only (fmol/cell well) [7]: 235; cyclic AMP; Example 2; 5C9 Fab 10 µg/mL + TSH (fmol/cell well) [7]: 4130; cyclic AMP; Example 2; 5C9 Fab 100 µg/mL + TSH (fmol/cell well) [7]: 867; cyclic AMP; Example 2; 5C9 Fab 100 µg/mL only (fmol/cell well) [7]: 212 |
